Data as given in patent US20110160081A1, “FUNCTIONAL COMPLEMENTATION ASSAY FOR DEFINED GPCR OLIGOMERS” (priority 2008, published 2011).

Experiments:
Experiment in all cases: cell-based or functional assay
[1] = target: DOR-Gqi5 (delta opiate receptor fused to Gqi5) (mouse)
N393A/CAM-Gqi5 (human) = target: N393A/CAM-Gqi5 (human)
[2] = target: D114^3.32A/E339^6.30A/T343^6.34R-Gq5 (human)

Myc-tagged D2R (unfused wild type dopamine D2 receptor, short isoform), sequence (P14416 other isoform, or with tags, fused parts or gaps): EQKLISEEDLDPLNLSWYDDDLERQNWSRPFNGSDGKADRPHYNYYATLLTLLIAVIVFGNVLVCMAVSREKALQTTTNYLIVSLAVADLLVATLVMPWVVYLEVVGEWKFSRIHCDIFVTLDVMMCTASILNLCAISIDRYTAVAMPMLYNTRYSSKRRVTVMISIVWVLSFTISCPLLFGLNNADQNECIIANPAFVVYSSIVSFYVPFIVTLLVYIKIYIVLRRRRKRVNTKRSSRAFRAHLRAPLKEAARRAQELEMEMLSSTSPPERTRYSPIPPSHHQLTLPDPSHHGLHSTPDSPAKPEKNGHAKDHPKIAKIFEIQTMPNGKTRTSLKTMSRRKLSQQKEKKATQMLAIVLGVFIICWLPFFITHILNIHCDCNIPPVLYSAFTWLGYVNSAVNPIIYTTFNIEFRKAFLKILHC

activation at 5 nM DPDPE, aequorin luminescence [1] [% activation]	Substance	potency of quinpirole in the presence of 5 nM DPDPE, aequorin luminescence [1] [fold]	aequorin luminescence on quinpirole (functional complementation) (N393A/CAM-Gqi5 (human)) [fold]	maximal activity, aequorin luminescence [2]
10	DPDPE (peptide)	–	–	–
–	Myc-tagged D2R (unfused wild type dopamine D2 receptor, short isoform) (from UniProt P14416 2-443)	10	3	49.6
